Test results as given in the supplement of paper PMC12764529.
± gives the half width of the 95% confidence interval.

Experiments:
[1] = folding stability dG unfold from chymotrypsin proteolysis; higher = more stable
Summary of the method: (§1)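 Designed mini-proteins (under 80 residues, no cysteine) in a PA-tagged cDNA display construct were digested with trypsin and chymotrypsin. Each protease was used at 11 concentrations (threefold dilutions) plus a no-protease condition, followed by sequencing. K50 was inferred by Bayesian fitting of sequencing counts, and unfolding free energy was derived against a sequence-predicted unfolded-state K50 and a shared folded-state K50, per protease or combined. Only designs with AlphaFold2 dimer inter-PAE above 15 were kept.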

[2] = folding stability dG unfold from trypsin proteolysis; higher = more stable
Summary of the method: as §1

[3] = folding stability dG unfold (combined trypsin and chymotrypsin); higher = more stable
Summary of the method: as §1

Sequence | folding stability dG unfold [1] | folding stability dG unfold [2] | folding stability dG unfold [3]
SAGGSAGGSAGGGPAPGKGLVVKLEPEEFEFENFRLIVVKAVKDDKLIAEIAYLISPDESAGGSAGGSAGGS [r10_628_TrMRF] | 0.823 ± 0.18 kcal/mol | 1.05 ± 0.12 kcal/mol | 0.904 ± 0.12 kcal/mol
SAGGSAGGSAGGGPDAVRQFPPPVNLSVEVTSYTSPSSSLSNGKPEKSTFTTLNPTAGVSAGGSAGGSAGGS [r10_877_JUSTAS] | 0.0744 ± 0.19 kcal/mol | 0.0381 ± 0.13 kcal/mol | 0.139 ± 0.11 kcal/mol
SAGGSAGGSAGGGSFVLTRHTRTGLRRRVYFDPETGELTVELETGTESRTTLSPLSPDLSAGGSAGGSAGGS [r10_376_TrMRF] | 0.748 ± 0.064 kcal/mol | -0.215 ± 0.2 kcal/mol | 0.489 ± 0.058 kcal/mol
SAGGSAGGSAGGGSITITFKHPDGGEVTIEITPPEPTVRVTVTLPNGEKLEYEFDFVPASAGGSAGGSAGGS [r10_595_TrMRF] | 3.68 ± 0.11 kcal/mol | 3.24 ± 0.22 kcal/mol | 3.58 ± 0.14 kcal/mol
SAGGSAGGSAGGGSMKEKKLTVGDKEIIVTYNPETGTATVKSPENSVSVFPLEELKKLLSAGGSAGGSAGGS [r10_1140_JUSTAS] | 0.741 ± 0.1 kcal/mol | -1.25 ± 0.93 kcal/mol | 0.318 ± 0.24 kcal/mol
SAGGSAGGSAGGGSMSITVPMSPEEGKKLAEEIKEKLKSEGNPVEVTVTIVSPTDPSLLSSAGGSAGGSAGG [r7_776_JUSTAS] | 0.167 ± 0.066 kcal/mol | 0.627 ± 0.04 kcal/mol | 0.41 ± 0.17 kcal/mol
SAGGSAGGSAGGGSMTLTEVFVDPETGTRTVRTTTLYTLPNGTLTSTTTTTVEPLPGELSAGGSAGGSAGGS [r10_1258_JUSTAS] | 1.87 ± 0.025 kcal/mol | 1.51 ± 0.022 kcal/mol | 1.76 ± 0.043 kcal/mol
SAGGSAGGSAGGGTAEELAKELEDLGYKVKLEPEGDYLLLTVTDPDNDKPYVILLDPETISAGGSAGGSAGG [r7_0_TrMRF] | 0.776 ± 0.028 kcal/mol | 1.25 ± 0.067 kcal/mol | 0.991 ± 0.035 kcal/mol
SAGGSAGGSAGGGVEVLSAERRRIPETGLVLVVIREKEPLKPIVVLMPEEDAVVFLKHFSAGGSAGGSAGGS [r10_988_TrMRF] | 0.92 ± 0.1 kcal/mol | 0.14 ± 0.094 kcal/mol | 0.703 ± 0.091 kcal/mol
SAGGSAGGSAGGGVVTLPDLKGLSEEELKALAEEIAKKLGLENVPLKLEFGEDGNLTLVLSAGGSAGGSAGG [r7_810_JUSTAS] | 1.24 ± 0.054 kcal/mol | 2.15 ± 0.077 kcal/mol | 1.74 ± 0.11 kcal/mol
SAGGSAGGSAGGHYIRAEIEIKYEHPGNGQEQTMTIPIEIPIPPPPPVSAEDRAKQNGIGSAGGSAGGSAGG [r7_79_TrROS] | 0.855 ± 0.041 kcal/mol | 0.318 ± 0.084 kcal/mol | 0.669 ± 0.065 kcal/mol
SAGGSAGGSAGGIGPEIVEAALIEAKEKVPEDEEVEILVRDPVTGEVLRLRIYPDRVELGSAGGSAGGSAGG [r7_44_TrMRF] | 0.785 ± 0.14 kcal/mol | 0.384 ± 0.11 kcal/mol | 0.698 ± 0.19 kcal/mol
SAGGSAGGSAGGIKDVKITEFERHPENNWYEVKISIPNGKPVEIPMNPGQSAEDILDQISAGGSAGGSAGGS [r10_984_TrROS] | 0.651 ± 0.045 kcal/mol | -0.418 ± 0.19 kcal/mol | 0.421 ± 0.2 kcal/mol
SAGGSAGGSAGGIKLENPNGFEVYKSPDSMVEIEFVNPNGKPMRYIIQVDEPGEIKPYPVSAGGSAGGSAGG [r7_423_TrROS] | 0.0804 ± 0.23 kcal/mol | 0.0628 ± 0.13 kcal/mol | 0.0566 ± 0.2 kcal/mol
SAGGSAGGSAGGIYPGPGNLLYFTGEDDYVKVIKITPPDNTIKIDIEIVPKGEATKIPYSAGGSAGGSAGGS [r10_257_TrMRF] | -0.331 ± 0.28 kcal/mol | 0.161 ± 0.059 kcal/mol | -0.00595 ± 0.097 kcal/mol
SAGGSAGGSAGGKELEIVLYDKETNVLVTAKVRMENGKLTITEVKVEKVKPPKLPPGVKPSAGGSAGGSAGG [r7_276_TrROS_Hall] | 2.44 ± 0.071 kcal/mol | 1.48 ± 0.06 kcal/mol | 2.14 ± 0.079 kcal/mol
SAGGSAGGSAGGKHKIPITNVHVSPPNGYIHVTIRFPGDGKPIEIHFPVPPGEPITIEISAGGSAGGSAGGS [r10_940_TrROS] | 3.53 ± 0.27 kcal/mol | 2.28 ± 0.14 kcal/mol | 2.74 ± 0.2 kcal/mol
SAGGSAGGSAGGKIDRIQLHYNPGGNVYFRIYGPNGKPRYFMMPAEDLEDFPNAPIEIYPSAGGSAGGSAGG [r7_238_TrROS] | 0.847 ± 0.11 kcal/mol | 0.648 ± 0.04 kcal/mol | 0.864 ± 0.096 kcal/mol
SAGGSAGGSAGGKIIVVKDKETGKYRVIIVDKKTKKTIVVEVDPNTTLEEALKKAKELLKSAGGSAGGSAGG [r7_138_TrROS_Hall] | 3.97 ± 0.12 kcal/mol | 3.05 ± 0.12 kcal/mol | 3.52 ± 0.24 kcal/mol
SAGGSAGGSAGGKIKDIDVQQMPDGWYWVEIEIPDPNGEEVKITIMFPPGHSVDDALDQLSAGGSAGGSAGG [r7_54_TrROS] | 1.03 ± 0.093 kcal/mol | 1.01 ± 0.069 kcal/mol | 1.04 ± 0.22 kcal/mol
SAGGSAGGSAGGKIKILKKNKTKEEIKKELAEKYNVKKIEIKPIKGNTYLVEIEVEPEESAGGSAGGSAGGS [r10_1219_TrMRF] | 0.634 ± 0.22 kcal/mol | -0.364 ± 0.24 kcal/mol | 0.292 ± 0.25 kcal/mol
SAGGSAGGSAGGKIKLTVTVDADGNATVTLEIEVESPEDKPFTIRLTLTFPLKDGESLTSAGGSAGGSAGGS [r10_763_TrMRF] | 3.88 ± 0.12 kcal/mol | 3.9 ± 0.29 kcal/mol | 3.82 ± 0.17 kcal/mol
SAGGSAGGSAGGKIKPGQTVIFIELKITKQRDGPDGKRYMEFEIERIDIFRIPPGDNILSAGGSAGGSAGGS [r10_826_TrROS] | 3.18 ± 0.13 kcal/mol | 2.55 ± 0.068 kcal/mol | 3.03 ± 0.13 kcal/mol
SAGGSAGGSAGGKILVITAKIEDIPEIIEAAKKLGIDSVIIDIPETKEKIIITKDSVKLISAGGSAGGSAGG [r7_564_TrMRF] | 1.76 ± 0.089 kcal/mol | 1.54 ± 0.057 kcal/mol | 1.63 ± 0.14 kcal/mol
SAGGSAGGSAGGKITFAPKTTLLLTATIPVTVYSLHPDGTLTTETRSATITFTIPPELLSAGGSAGGSAGGS [r10_383_TrMRF] | 4.1 ± 0.074 kcal/mol | 2.4 ± 0.086 kcal/mol | 3.64 ± 0.12 kcal/mol
SAGGSAGGSAGGKIYKKKNGTYKIIIYDKKTKKVYEIEIPVSKEDKPKILKEAKELAKKSAGGSAGGSAGGS [r10_379_TrROS_Hall] | 1.49 ± 0.096 kcal/mol | 0.609 ± 0.11 kcal/mol | 1.17 ± 0.084 kcal/mol
SAGGSAGGSAGGKKIEIPGFEITKVEPLENDSVIAEGKFKNGKKYRILFLPNKVYINDESAGGSAGGSAGGS [r10_312_TrMRF] | 0.44 ± 0.2 kcal/mol | 0.335 ± 0.16 kcal/mol | 0.357 ± 0.16 kcal/mol
